Assay results from patent US20260242735A1 (UNIVERSIT T BASEL, published 2026).
Where two headings read alike, the source gives them in different places. Values belong to the binder of their own block, whether it stands above or below them.

Columns and labels:
human wild-type CD33 [1] = target: T1, human wild-type CD33 (human, UniProt P20138 18-364); assay: flow cytometry, IgG at 0.50 ug/ml on HEK293-T cells expressing CD33 against vector alone
T1 construct: also called SIGLEC3; P67
Method: (§1) Binding of the antibodies to the transfected cells and the optimal assay conditions were evaluated in 384-well format. Detection of cellular expression was measured via high-throughput flow cytometry. Serial dilutions of each antibody were tested for immunoreactivity against cells expressing CD33 or vector alone. The optimal screening concentration for each antibody was determined based on the raw signal values and signal-to-background calculations. Each point represents the mean of four replicates.

human CD33 E357A = target: T2, human CD33 E357A (human, UniProt P20138 18-364); assay: alanine scan; flow cytometry, HEK293-T cells expressing the mutant; normalised to WT CD33;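 note: antibodies (IgG or Fab) at doses pre-set by titration on wild-type CD33, duplicate readings with background fluorescence subtracted, mutants made by site-directed alanine substitution (alanine changed to serine)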
T2 construct: Alanine-scan mutant clone of CD33 transiently transfected into HEK293-T cells
T2 sequence (P20138 18-364 E357A limits assumed): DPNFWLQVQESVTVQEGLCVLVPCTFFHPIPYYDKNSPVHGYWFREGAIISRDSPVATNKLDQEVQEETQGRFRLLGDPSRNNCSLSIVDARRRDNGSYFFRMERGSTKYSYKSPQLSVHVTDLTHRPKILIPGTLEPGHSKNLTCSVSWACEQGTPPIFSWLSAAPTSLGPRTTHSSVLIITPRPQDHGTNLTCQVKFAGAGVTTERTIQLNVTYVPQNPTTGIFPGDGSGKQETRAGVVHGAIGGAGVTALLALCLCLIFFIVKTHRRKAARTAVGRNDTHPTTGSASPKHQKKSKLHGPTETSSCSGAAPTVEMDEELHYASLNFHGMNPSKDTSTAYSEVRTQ
Method: (§2) An alanine scan on human CD33 was performed to the determine the residues on CD33 that are involved in binding to the antibodies investigated. […] Briefly, a mutation library of CD33 was created by high-throughput, site-directed mutagenesis. Each residue was individually mutated to alanine, with alanine codons mutated to serine. The mutant library was arrayed in 384-well microplates and transiently transfected into HEK293-T. Following transfection, cells were incubated with the indicated antibodies (IgG or Fab) at concentrations pre-determined using an independent immunofluorescence titration curve on wild type CD33. […] Binding of each antibody to each mutant clone was determined in duplicates. For each point, background fluorescence was subtracted from the raw data, which were then normalized to antibody reactivity with wild type CD33.
(§3) Critical residues for antibody binding (outlined in dark grey) were residues whose mutations led to a binding of the test Abs of less than 20%. Additional secondary residues (outlined in light grey) were identified that led to a binding of the test Abs of between 20 and 40% as compared to the wild type CD33.

human CD33 N349A = target: T3, human CD33 N349A (human, UniProt P20138 18-364); assay: as above
T3 construct: Alanine-scan mutant clone of CD33 transiently transfected into HEK293-T cells
T3 sequence (P20138 18-364 N349A limits assumed): as the sequence (P20138 18-364 E357A limits assumed) above, with N332A, A340E counted along it
Method: as §2, §3

human CD33 E360A = target: T4, human CD33 E360A (human, UniProt P20138 18-364); assay: as above
T4 construct: Alanine-scan mutant clone of CD33 transiently transfected into HEK293-T cells
T4 sequence (P20138 18-364 E360A limits assumed): as the sequence (P20138 18-364 E357A limits assumed) above, with A340E, E343A counted along it
Method: as §2, §3

human CD33 R362A = target: T5, human CD33 R362A (human, UniProt P20138 18-364); assay: as above
T5 construct: Alanine-scan mutant clone of CD33 transiently transfected into HEK293-T cells
T5 sequence (P20138 18-364 R362A limits assumed): as the sequence (P20138 18-364 E357A limits assumed) above, with A340E, R345A counted along it
Method: as §2, §3

human CD33 T363A = target: T6, human CD33 T363A (human, UniProt P20138 18-364); assay: as above
T6 construct: Alanine-scan mutant clone of CD33 transiently transfected into HEK293-T cells
T6 sequence (P20138 18-364 T363A limits assumed): as the sequence (P20138 18-364 E357A limits assumed) above, with A340E, T346A counted along it
Method: as §2, §3

human CD33 S355A = target: T7, human CD33 S355A (human, UniProt P20138 18-364); assay: as above
T7 construct: Alanine-scan mutant clone of CD33 transiently transfected into HEK293-T cells
T7 sequence (P20138 18-364 S355A limits assumed): as the sequence (P20138 18-364 E357A limits assumed) above, with S338A, A340E counted along it
Method: as §2, §3

human CD33 Q364A = target: T8, human CD33 Q364A (human, UniProt P20138 18-363); assay: as above
T8 construct: Alanine-scan mutant clone of CD33 transiently transfected into HEK293-T cells
T8 sequence (P20138 18-364 Q364A limits assumed): as the sequence (P20138 18-364 E357A limits assumed) above, with A340E, Q347A counted along it
Method: as §2, §3

human CD33 D353A = target: T9, human CD33 D353A (human, UniProt P20138 18-364); assay: as above
T9 construct: Alanine-scan mutant clone of CD33 transiently transfected into HEK293-T cells
T9 sequence (P20138 18-364 D353A limits assumed): as the sequence (P20138 18-364 E357A limits assumed) above, with D336A, A340E counted along it
Method: as §2, §3

human CD33 T356A = target: T10, human CD33 T356A (human, UniProt P20138 18-364); assay: as above
T10 construct: Alanine-scan mutant clone of CD33 transiently transfected into HEK293-T cells
T10 sequence (P20138 18-364 T356A limits assumed): as the sequence (P20138 18-364 E357A limits assumed) above, with T339A, A340E counted along it
Method: as §2, §3

human CD33 Y358A = target: T11, human CD33 Y358A (human, UniProt P20138 18-364); assay: as above
T11 construct: Alanine-scan mutant clone of CD33 transiently transfected into HEK293-T cells
T11 sequence (P20138 18-364 Y358A limits assumed): as the sequence (P20138 18-364 E357A limits assumed) above, with A340E, Y341A counted along it
Method: as §2, §3

human CD33 V361A = target: T12, human CD33 V361A (human, UniProt P20138 18-364); assay: as above
T12 construct: Alanine-scan mutant clone of CD33 transiently transfected into HEK293-T cells
T12 sequence (P20138 18-364 V361A limits assumed): as the sequence (P20138 18-364 E357A limits assumed) above, with A340E, V344A counted along it
Method: as §2, §3

human CD33 T354A = target: T13, human CD33 T354A (human, UniProt P20138 18-364); assay: as above
T13 construct: Alanine-scan mutant clone of CD33 transiently transfected into HEK293-T cells
T13 sequence (P20138 18-364 T354A limits assumed): as the sequence (P20138 18-364 E357A limits assumed) above, with T337A, A340E counted along it
Method: as §2, §3

human CD33 M348A = target: T14, human CD33 M348A (human, UniProt P20138 18-364); assay: as above
T14 construct: Alanine-scan mutant clone of CD33 transiently transfected into HEK293-T cells
T14 sequence (P20138 18-364 M348A limits assumed): as the sequence (P20138 18-364 E357A limits assumed) above, with M331A, A340E counted along it
Method: as §2, §3

human CD33 S359A = target: T15, human CD33 S359A (human, UniProt P20138 18-364); assay: as above
T15 construct: Alanine-scan mutant clone of CD33 transiently transfected into HEK293-T cells
T15 sequence (P20138 18-364 S359A limits assumed): as the sequence (P20138 18-364 E357A limits assumed) above, with A340E, S342A counted along it
Method: as §2, §3

human CD33 P350A = target: T16, human CD33 P350A (human, UniProt P20138 18-364); assay: as above
T16 construct: Alanine-scan mutant clone of CD33 transiently transfected into HEK293-T cells
T16 sequence (P20138 18-364 P350A limits assumed): as the sequence (P20138 18-364 E357A limits assumed) above, with P333A, A340E counted along it
Method: as §2, §3

human CD33 S351A = target: T17, human CD33 S351A (human, UniProt P20138 18-364); assay: as above
T17 construct: Alanine-scan mutant clone of CD33 transiently transfected into HEK293-T cells
T17 sequence (P20138 18-364 S351A limits assumed): as the sequence (P20138 18-364 E357A limits assumed) above, with S334A, A340E counted along it
Method: as §2, §3

human CD33 G347A = target: T18, human CD33 G347A (human, UniProt P20138 18-364); assay: as above
T18 construct: Alanine-scan mutant clone of CD33 transiently transfected into HEK293-T cells
T18 sequence (P20138 18-364 G347A limits assumed): as the sequence (P20138 18-364 E357A limits assumed) above, with G330A, A340E counted along it
Method: as §2, §3

human CD33 H346A = target: T19, human CD33 H346A (human, UniProt P20138 18-364); assay: as above
T19 construct: Alanine-scan mutant clone of CD33 transiently transfected into HEK293-T cells
T19 sequence (P20138 18-364 H346A limits assumed): as the sequence (P20138 18-364 E357A limits assumed) above, with H329A, A340E counted along it
Method: as §2, §3

human CD33 K352A = target: T20, human CD33 K352A (human, UniProt P20138 18-364); assay: as above
T20 construct: Alanine-scan mutant clone of CD33 transiently transfected into HEK293-T cells
T20 sequence (P20138 18-364 K352A limits assumed): as the sequence (P20138 18-364 E357A limits assumed) above, with K335A, A340E counted along it
Method: as §2, §3

human wild-type CD33 [2] = target: T1, human wild-type CD33; assay: flow cytometry, IgG at 0.50 ug/ml on HEK293-T cells expressing CD33 against vector alone; remark: listed apart in the source
Method: as §1

T1 sequence (P20138 18-364 limits assumed): as the sequence (P20138 18-364 E357A limits assumed) above, with A340E counted along it

Signal:Background (human wild-type CD33 [1]): 57 signal:background ratio
B1: Refmab #6 (antibody, human IgG1, V domains shown)
VH: QVQLQQPGAEVVKPGASVKMSCKASGYTFTSYYIHWIKQTPGQGLEWVGVIYPGNDDISYNQKFQGKATLTADKSSTTAYMQLSSLTSEDSAVYYCAREVRLRYFDVWGQGTTVTVSS
VL: EIVLTQSPGSLAVSPGERVTMSCKSSQSVFFSSSQKNYLAWYQQIPGQSPRLLIYWASTRESGVPDRFTGSGSGTDFTLTISSVQPEDLAIYYCHQYLSSRTFGQGTKLEIK
notes: Full-length MAb format, human IgG1 Fc silent (PG-LALA)

Mean % WT Binding (human CD33 E357A): 91.2 % WT binding
Mean % WT Binding (human CD33 N349A): 91 % WT binding
Mean % WT Binding (human CD33 E360A): 93.5 % WT binding
Mean % WT Binding (human CD33 R362A): 107 % WT binding
Mean % WT Binding (human CD33 T363A): 105 % WT binding
Mean % WT Binding (human CD33 S355A): 98.9 % WT binding
Mean % WT Binding (human CD33 Q364A): 94.4 % WT binding
Mean % WT Binding (human CD33 D353A): 92.1 % WT binding
Mean % WT Binding (human CD33 T356A): 99.5 % WT binding
Mean % WT Binding (human CD33 Y358A): 92 % WT binding
Mean % WT Binding (human CD33 V361A): 76 % WT binding
Mean % WT Binding (human CD33 T354A): 99.3 % WT binding
Mean % WT Binding (human CD33 M348A): 101 % WT binding
Mean % WT Binding (human CD33 S359A): 82.5 % WT binding
Mean % WT Binding (human CD33 P350A): 108 % WT binding
Mean % WT Binding (human CD33 S351A): 112 % WT binding
Mean % WT Binding (human CD33 G347A): 95.2 % WT binding
Mean % WT Binding (human CD33 H346A): 104 % WT binding
Mean % WT Binding (human CD33 K352A): 94.1 % WT binding
B2: Refmab #6 (antibody, V domains shown)
VH: QVQLQQPGAEVVKPGASVKMSCKASGYTFTSYYIHWIKQTPGQGLEWVGVIYPGNDDISYNQKFQGKATLTADKSSTTAYMQLSSLTSEDSAVYYCAREVRLRYFDVWGQGTTVTVSS
VL: EIVLTQSPGSLAVSPGERVTMSCKSSQSVFFSSSQKNYLAWYQQIPGQSPRLLIYWASTRESGVPDRFTGSGSGTDFTLTISSVQPEDLAIYYCHQYLSSRTFGQGTKLEIK
notes: Full-length format is human IgG1 Fc silent (PG-LALA); The alanine scan used IgG or Fab

Signal:Background (human wild-type CD33 [2]): 59 signal:background ratio
B3: Refmab #2 (antibody, human IgG1, V domains shown)
VH: QVQLVQSGAEVKKPGSSVKVSCKASGGTFSDYAISWVRQAPGQGLEWMGRIIPILGVADYAQKFQGRVTITADKSTRTAYMELSSLRSEDTAVYYCARNWADAFDIWGQGTMVTVSS
VL: DIQLTQSPSSLSASVGDRVTITCRASQGISSVLAWYQQKPGKAPKLLIYDASSLESGVPSRFSGSGSGTDFTLTISSLQPEDFATYYCQQFDSSITFGQGTKLEIK
notes: as for B1
